The source of these data is the DeepSol protein solubility set.

This data set in a line: soluble on expression in E. coli; label from the status in PepcDB or PDB records.
With “MGGLTLFAAQGCKAPKQVAEQAEHPNIIYVFPDQYRNQAMGFWNQEGFRDKVNFRGDPVHTPNIDTFARESMVLTSAQSNCPLSSPHRGMLLTGMYPNRSGVPLNCNSTRPISSLRDDAECIGDVFSKAGYDCAYFGKLHADFPTPNDPENPGQYVETQRPVWDAYTPKEQRHGFNYWYSYGTFDEHKNPHYWDTDGKRHDPKEWSPLHESGKVVSYLKNEGNVRDTKKPFFIMVGMNPPHSPYRSLNDCEEQDFNLYKDQPLDSLLIRPNVDLNMKKAESVRYYFASVTGVDRAFGQILEALKQLGLDKNTVVIFASDHGETMCSQRTDDPKNSPYSESMNIPFLVRFPGKIQPRVDDLLLSAPDIMPTVLGLCGLGDSIPSEVQGRNFAPLFFDEKAEIVRPAGALYIQNLDGEKDKDGLVQSYFPSSRGIKTARYTLALYIDRKTKQLKKSLLFDDVNDPYQLNNLPLDENKEVVEQLYREMGTMLKEIDDPWYTEKILSDRIPYLEHHHHHH”, the “soluble on expression in E. coli” value is on record as “not soluble”.
In the case of “MGGSHHHHHHGDDDDKMTKTFKTLDDFLGTHFIYTYDNGWEYEWYAKNDHTVDYRIHGGMVAGRWVTDQKADIVMLTEGIYKISWTEPTGTDVALDFMPNEKKLHGTIFFPKWVEEHPEITVTYQNEHIDLMEQSREKYATYPKLVVPEFANITYMGDAGQNNEDVISEAPYKEMPNDIRNGKYFDQNYHRLNK” it was “soluble”; in that of “MGGSHHHHHHGMASALASEAPSPPRSPPPPTSPEPELAQLRRKVEKLERELRSCKRQVREIEKLLHHTERLYQNAESNNQELRTQVRGPPQPRAPSSPGEAFEARDSLGRGPWQGLRTTVEYLK”, “not soluble”.
With “MGGSHHHHHHGMASETGPEDPSSMPEESSPRRTPQSIPYQDLPHLVNADGQYLFCRYWKPTGTPKALIFVSHGAGEHSGRYEELARMLMGLDLLVFAHDHVGHGQSEGERMVVSDFHVFVRDVLQHVDSMQKDYPGLPVFLLGHSMGGAIAILTAAERPGHFAGMVLISPLVLANPESATTFKVLAAKVLNLVLPNLSLGPIDSSVLSRNKTEVDIYNSDPLICRAGLKVCFGIQLLNAVSRVERALPKLTVPFLLLQGSADRLCDSKGAYLLMELAKSQDKTLKIYEGAYHVLHKELPEVTNSVFHEINMWVSQRTATAGTASPP” the entry was “not soluble”; with “MGGYGGVKMEGMLKGEGPGPLPPLLQQYVELRDRYPDYLLLFQVGDFYECFGEDAERLARALGLVLTHKTSKDFTTPMAGIPIRAFDAYAERLLKMGFRLAVADQVEPAEEAEGLVRREVTQLLTPGTLTQEALLPREANYLAAIATGDGWGLAFLDVSTGEFKGTLLKSKSALYDELFRHRPAEVLLAPELRENEAFVAEFRKRFPVMLSEAPFEPQGEGPLALRRAQGALLAYARATQGGALSVRPFRLYDPGAFVRLPEASLKALEVFEPLRGQDTLFGVLDETRTAPGRRLLQAWLRHPLLERGPLEARLDRVERFVREGALREGVRRLLFRLADLERLATRLELSRASPRDLAALRRSLEILPELKGLLGEEVGLPDLSGLLEELRAALVEDPPLKVSEGGLIREGYDPDLDALRRAHAEGVAYFLDLEAREKERTGIPTLKVGYNAVFGYYLEVTRPYYEKVPQEYRPVQTLKDRQRYTLPEMKERERELYRLEALIKRREEEVFLALRERARKEAEALREAARILAELDVYAALAEVAVRHGYTRPRFGERLRIRAGRHPVVERRTAFVPNDLEMAHELVLVTGPNMAGKSTFLRQTALIALLAQIGSFVPAEEAELPLFDGIYTRIGASDDLAGGKSTFMVEMEEVALVLKEATERSLVLLDEVGRGTSSLDGVAIATALAEALHERRCYTLFATHYFELTALALPRLKNLHVAAKEEEGGLVFYHQVLPGPASKSYGVEVAEMAGLPKEVVERARALLSAMAARREGALEEVLERLLALDPDRLTPLEALRFLHELKALALGLPLGSMKG”, “soluble”.
Regarding “MGHFSEKSGSLILRRSLFIVDAIYLKKFRKKTGLKQKEFALSSGLTLKSLRNYEQGKRKLTLEKYQEIKSHFGYLVENDSSRLQVMIDYVRITLKDVRDLEFFCRNFLHCAFKEFQPFESKLMNYNHLWKRGDIWIFDFADKHETGNFQITVQLSGRGCRQLELLMETEKFTWHDWLSYLRNSYRDDMNVTRFDIAIDELYLGKDRENEQFHLSDMISKYYRHELDFESLRTWNYIGGGSLNFSDMEEIEQNRQGISLYFGSRQSEMYFNFYEKRYEIAKQEGITVEEALEIFELWNRYEIRLSQSKANAAVDEFISGVPIGEISRGLIVSKIDVYDGKNEYGSFQADRKWQLMFGGVEPLKFVTKPEAYSIERTLRWLSDSVSPSLAMIREYDMIVDGDYLQTILNSGEVNERGEKILDSIKASLGIL”, the “soluble on expression in E. coli” value is “not soluble”.
